B1: Src substrate cortactin (Homo sapiens), Q14247 (parent)
chain: MWKASAGHAVSIAQDDAGADDWETDPDFVNDVSEKEQRWGAKTVQGSGHQEHINIHKLRENVFQEHQTLKEKELETGPKASHGYGGKFGVEQDRMDKSAVGHEYQSKLSKHCSQVDSVRGFGGKFGVQMDRVDQSAVGFEYQGKTEKHASQKDYSSGFGGKYGVQADRVDKSAVGFDYQGKTEKHESQRDYSKGFGGKYGIDKDKVDKSAVGFEYQGKTEKHESQKDYVKGFGGKFGVQTDRQDKCALGWDHQEKLQLHESQKDYKTGFGGKFGVQSERQDSAAVGFDYKEKLAKHESQQDYSKGFGGKYGVQKDRMDKNASTFEDVTQVSSAYQKTVPVEAVTSKTSNIRANFENLAKEKEQEDRRKAEAERAQRMAKERQEQEEARRKLEEQARAKTQTPPVSPAPQPTEERLPSSPVYEDAASFKAELSYRGPVSGTEPEPVYSMEAADYREASSQQGLAYATEAVYESAEAPGHYPAEDSTYDEYENDLGITAVALYDYQAAGDDEISFDPDDIITNIEMIDDGWWRGVCKGRYGLFPANYVELRQ
partner: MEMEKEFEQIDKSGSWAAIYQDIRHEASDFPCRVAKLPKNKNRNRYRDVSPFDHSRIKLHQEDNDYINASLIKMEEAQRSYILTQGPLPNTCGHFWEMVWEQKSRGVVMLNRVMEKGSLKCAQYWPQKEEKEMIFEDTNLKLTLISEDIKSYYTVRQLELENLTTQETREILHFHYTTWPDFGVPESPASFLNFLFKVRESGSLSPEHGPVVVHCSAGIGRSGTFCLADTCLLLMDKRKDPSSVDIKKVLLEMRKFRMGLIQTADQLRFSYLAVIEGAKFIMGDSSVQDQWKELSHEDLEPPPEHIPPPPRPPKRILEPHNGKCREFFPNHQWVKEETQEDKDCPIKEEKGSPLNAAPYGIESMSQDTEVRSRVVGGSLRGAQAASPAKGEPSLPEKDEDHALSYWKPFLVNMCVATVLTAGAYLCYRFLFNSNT

In this test the parent is B1. As to conditions: with ptn1_human PTPN1, P18031.
With Y446F, the “effect of a mutation on the interaction” value was “disrupting interaction”.

(Values after IntAct's records for PubMed 18387954.)
